{"source": "paper PMC6086383", "proteins": {"B1": {"name": "HuBChE (Homo sapiens) (protein)", "chain": "EDDIIIATKNGKVRGMNLTVFGGTVTAFLGIPYAQPPLGRLRFKKPQSLTKWSDIWNATKYANSCCQNIDQSFPGFHGSEMWNPNTDLSEDCLYLNVWIPAPKPKNATVLIWIYGGGFQTGTSSLHVYDGKFLARVERVIVVSMNYRVGALGFLALPGNPEAPGNMGLFDQQLALQWVQKNIAAFGGNPKSVTLFGESAGAASVSLHLLSPGSHSLFTRAILQSGSFNAPWAVTSLYEARNRTLNLAKLTGCSRENETEIIKCLRNKDPQEILLNEAFVVPYGTPLSVNFGPTVDGDFLTDMPDILLELGQFKKTQILVGVNKDEGTAFLVYGAPGFSKDNNSIITRKEFQEGLKIFFPGVSEFGKESILFHYTDWVDDQRPENYREALGDVVGDYNFICPALEFTKKFSEWGNNAFFYYFEHRSSKLPWPEWMGVMHGYEIEFVFGLPLERRDNYTKAEEILSRSIVKRWANFAKYGNPNETQNNSTSWPVFKSTEQKYLTLNTESTRIMTKLRAQQCRFWTSFFPKVLEMTGNIDEAEWEWKAGFHRWNNYMMDWKNQFNDYTSKKESCVGL"}}, "substrate": "CC(=O)SCC[N+](C)(C)C", "assay": "Steady state kinetics of substrate hydrolysis, HuBChE", "assay_type": "biochemical, human", "conditions": "other: HuBChE, equation 1, 50 mM sodium phosphate pH 8.0, 22 °C", "data": [{"protein": "B1", "values": [{"measurement": "Km", "value": "31 ± 4", "unit": "µM"}, {"measurement": "kcat", "value": "23±2 x10^3 min^−1"}, {"measurement": "kcat/Km", "value": "697±14 ×10^3 min^−1 mM^−1"}]}]}
